According to paper PMC12000397:

Tests used:
[1] = molecular target: Grp94 N91C labeled with Alexa Fluor 555 (donor) and Alexa Fluor 647 (acceptor) (mouse) (UniProt P08113); assay: other fluorescence titration; bulk FRET of 125 nM donor- and acceptor-labeled Grp94 N91C, BiP NBD titrated, apo conditions; 30 °C, 25 mM Tris pH 7.5, 50 mM KCl, 1 mM BME, 1 mg/mL BSA; single-site fit; apparent
[2] = molecular target: FITC-labeled BiP NBD (mouse); assay: fluorescence polarisation; 50 nM FITC-labeled BiP NBD constructs, Grp94 or Grp94 MD titrated; 25 mM Tris pH 7.5, 50 mM KCl, 1 mM ADP (hexokinase-treated), 1 mM DTT; single-site binding fit
[3] = molecular target: FITC-labeled BiP_(D187A) NBD (mouse); assay: as above
[4] = molecular target: FITC-labeled BiP_(I191A) NBD (mouse); assay: as above

Sequence of Grp94 (residues 72-765) with the charged-linker removed (Δ287-328) (P08113 other isoform, or with tags, fused parts or gaps mutant): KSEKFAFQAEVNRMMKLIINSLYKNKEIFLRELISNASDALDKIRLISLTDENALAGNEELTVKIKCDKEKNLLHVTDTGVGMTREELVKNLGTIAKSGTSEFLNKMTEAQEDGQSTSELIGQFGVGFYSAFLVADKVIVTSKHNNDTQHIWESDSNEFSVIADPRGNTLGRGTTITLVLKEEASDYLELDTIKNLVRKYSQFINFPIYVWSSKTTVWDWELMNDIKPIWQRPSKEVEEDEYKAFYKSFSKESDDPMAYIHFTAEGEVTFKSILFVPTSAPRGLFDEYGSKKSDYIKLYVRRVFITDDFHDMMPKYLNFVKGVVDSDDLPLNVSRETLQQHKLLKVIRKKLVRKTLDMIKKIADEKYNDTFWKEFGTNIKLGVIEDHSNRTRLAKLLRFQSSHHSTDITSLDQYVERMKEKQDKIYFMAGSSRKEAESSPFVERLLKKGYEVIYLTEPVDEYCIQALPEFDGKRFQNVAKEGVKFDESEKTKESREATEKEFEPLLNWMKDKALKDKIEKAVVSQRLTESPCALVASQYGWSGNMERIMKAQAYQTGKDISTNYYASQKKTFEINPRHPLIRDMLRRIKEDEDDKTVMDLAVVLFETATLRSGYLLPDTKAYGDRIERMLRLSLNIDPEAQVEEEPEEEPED
Sequence of Grp94 N91C labeled with Alexa Fluor 555 (donor) and Alexa Fluor 647 (acceptor) (mouse) (P08113 other isoform, or with tags, fused parts or gaps Δ287-328 | N91C | N91C): as the sequence (P08113 other isoform, or with tags, fused parts or gaps mutant) above, with N20C counted along it

Substance	Kd [1]	Kd [2]	Kd [3]	Kd [4]
BiP NBD (domain or fragment)	0.67 µM	–	–	–
Grp94 (residues 72-765) with the charged-linker removed (Δ287-328) (from UniProt P08113 72-765) (natural protein)	–	1.4 µM	8.2 µM	9 µM
